According to US20200199207A1 (MABYLON, published 2020):

T1: nAra h 2 (peanut, UniProt Q6PSU2 22-172)
T1 construct: Bought natural allergen; also called naturally extracted Ara h 2
T1 sequence (looked up): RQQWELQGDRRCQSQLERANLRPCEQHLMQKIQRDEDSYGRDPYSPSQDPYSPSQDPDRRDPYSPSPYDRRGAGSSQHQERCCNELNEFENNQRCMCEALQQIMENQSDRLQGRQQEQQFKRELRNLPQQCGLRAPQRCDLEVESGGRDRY

T2: nAra h 1 (peanut, UniProt P43238 85-626)
T2 construct: Bought natural allergen; also called naturally extracted Ara h 1
T2 sequence (looked up): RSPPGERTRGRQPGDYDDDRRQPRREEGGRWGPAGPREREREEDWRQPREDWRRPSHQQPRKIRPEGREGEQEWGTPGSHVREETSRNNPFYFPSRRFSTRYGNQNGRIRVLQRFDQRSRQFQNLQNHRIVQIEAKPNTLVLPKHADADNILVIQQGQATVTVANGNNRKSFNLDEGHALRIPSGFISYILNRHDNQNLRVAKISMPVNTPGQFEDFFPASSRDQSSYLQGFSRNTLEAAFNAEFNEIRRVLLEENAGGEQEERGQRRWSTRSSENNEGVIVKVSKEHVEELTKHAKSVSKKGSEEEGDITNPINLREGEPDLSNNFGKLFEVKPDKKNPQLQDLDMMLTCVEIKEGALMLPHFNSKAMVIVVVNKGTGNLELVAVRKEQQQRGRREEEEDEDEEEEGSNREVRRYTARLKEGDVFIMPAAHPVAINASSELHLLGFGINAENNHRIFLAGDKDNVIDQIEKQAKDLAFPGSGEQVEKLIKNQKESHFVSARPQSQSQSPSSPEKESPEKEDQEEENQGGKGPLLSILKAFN

T3: nAra h 6 (peanut, UniProt Q647G9 22-145)
T3 construct: Bought natural allergen; also called naturally extracted Ara h 6
T3 sequence (looked up): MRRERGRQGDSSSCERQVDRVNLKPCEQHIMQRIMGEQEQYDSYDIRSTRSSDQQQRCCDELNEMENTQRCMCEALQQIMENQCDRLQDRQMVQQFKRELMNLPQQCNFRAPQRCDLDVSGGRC


Experiments:
Experiment in all cases: ELISA, antigen-coated plate
[1] = target: T1, nAra h 2
Experimental: (§1) EC50 binding of exemplary anti-peanut antibodies of the present invention to peanut allergens or peanut extract, was determined by ELISA. Serial dilutions of MAbs (from 1000 ng/ml down to 0.0169 ng/ml) were incubated for 2 hours with antigen-coated plates (coating overnight at 4° C. or 1 h at 37° C. with 1 μg/ml antigen in PBS, followed by wash out and blocking with 2% BSA in PBS). The plates were subsequently washed and binding of MAbs was detected with anti-human HRP-conjugated Fc-gamma-specific secondary antibody (Jackson ImmunoResearch, West Grove, Pa., USA). Concentrations of MAb resulting in half of maximal binding to respective antigens (EC50, ng/ml) were calculated using GraphPad Prism 5 software on sigmoidal dose-response curves (variable slope, 4 parameters) obtained by plotting the log of the concentration versus OD450 nm measurements; for the results see FIG. 3 and table 2.

[2] = target: T2, nAra h 1
Experimental: as §1

[3] = target: T4, nAra h 3 (peanut)
T4 construct: Bought natural allergen; also called naturally extracted Ara h 3
Experimental: as §1

[4] = target: T3, nAra h 6
Experimental: as §1

EC50 [1] [µg/mL]	EC50 [2] [µg/mL]	EC50 [3] [µg/mL]	EC50 [4] [µg/mL]	Binder
0.0087	–	–	–	hm2F8 (antibody, V domains shown, also called 2F8 with mouse Fc; hmMAb 2F8) VH: EVQLVESGGGLVKPGGSLRLSCAASGFIFSDYNMNWVRQAPGKGLEWVSSITRSSRTIYYADSVKGRFTISRDNAKNSLHLQMNSLRDADTAVYYCAREDFDVSTGPYYMDVWGNGTTVIVSS VL: EIVLTQSPGTLSLSPGERATLSCRASQSVSNMFLVWYQQKPGQAPRLLMYGASTRATDIPDRFSGSGSGTDFTLTISRLEPEDFAVYYCQQNGNSPYTFGQGTKLEIK
0.0099	–	–	–	hm32B10 (antibody, V domains shown, also called 32B10 with mouse Fc; hmMAb 32B10) VH: QVQLVQSGAEVKKPGASVKVSCRASGYIFRNFDINWVRQATGQGLEWMGWMSPKSGDTGYAQKFQGRVTMTRDTSINTAYMELSSLTSEDSAVYYCARGVDGTNWGQGTRVTVSS VL: DIVMTQSPDSLGVSLGERATISCKSSQSILDNSNNKNFIAWFQQKPGQPPKLLIYWASARESGVPDRFSGSGSGTEFTLTINSLQAEDVAVYYCYQYYSTPHTFGQGTKLDLR
0.0102	–	–	–	hm4B2 (antibody, V domains shown, also called 4B2 with mouse Fc; hmMAb 4B2) VH: QVQLQEAGPRLVKPSQTLSVTCTVSGASITIGGYYWSWIRQHPGKGLEWMGYIYSNGRTYYNPSLKSRIAMSIDTSKNQFSLKLTSVTAADTAIYFCAREAWETPLWGQGTLITVSS VL: DIQMTQSPSSLSASVGDRVTITCQANQDIVNSLNWFQHKPGTAPKVLIYDASKLETGVPSRFSGSGSGTHFTFTISGLQPEDFATYFCQQYENLPHTFGQGTKLEIR
0.0067	0.195	0.0368	0.0278	hm12G10 (antibody, V domains shown, also called 12G10 with mouse Fc; hmMAb 12G10) VH: EVQLLESGGRLLRPGGSLSLSCVASGFYFGDFGMSWVRQVPGKGLEWVSGIDWSGRSTGYVDSMKGRLTISRDNDKSSLYLQMNDLRGEDTAVYYCARVGRLCSGDSCDSMGAFDLWGQGTMVTVSS VL: DIQLTQSPSTLSASIGDSVTITCRASQNIDNWLAWYQQKPGKAPRLLIYKASSLGSGVSSKFRGSGFGTEFTLTITSLQPDDFATYYCQKSNGYSRTFGQGTKVDIK
0.0052	0.115	0.0723	0.034	hm37D5 (antibody, V domains shown, also called 37D5 with mouse Fc; hmMAb 37D5) VH: EEQLVESGGRLLRPGESLSLSCAAVGFNFGDFGMAWVRQPPGKGLEWVAGINWSGHSTGFVDSMKGRLTISRDSAKSSLFLQMNSLRGEDTAVYYCARVGRLCSGDICDSMGAFDLWGQGTMVTVSS VL: DIQMTQSPSTLSASIGDRVTITCRASQTIDNWLAWYQQRPGKAPKLLIYQASSLQSGVSSRFRGSGSGTEFTLTITSLQPDDFATYYCQKSNGYSRTFGQGTKVEIK
